Test results: patent US20130315946A1

Target: complement C3
Assay: ELISA, peptide coated on plate, serum C3 detected with anti-C3 antibody; relative to A2-0 (SPE B C192S)

B1: SPE B346~360 (as set forth in SEQ ID NO: 6) (peptide)
peptide: GADGRNFYHVNWGWG
binding ability relative to reference A2-0: > 50%

B2: SPE B376~398 (as set forth in SEQ ID NO: 8) (peptide)
peptide: ALGTGGGAGGFNGYQSAVVGIKP
binding ability relative to reference A2-0: > 50%
